Values of other authors in publication PMC8087844.

Target: IL2R alpha (CD25) (Homo sapiens) (UniProt P01589)
UniProt P01589, sequence (P01589 22-240): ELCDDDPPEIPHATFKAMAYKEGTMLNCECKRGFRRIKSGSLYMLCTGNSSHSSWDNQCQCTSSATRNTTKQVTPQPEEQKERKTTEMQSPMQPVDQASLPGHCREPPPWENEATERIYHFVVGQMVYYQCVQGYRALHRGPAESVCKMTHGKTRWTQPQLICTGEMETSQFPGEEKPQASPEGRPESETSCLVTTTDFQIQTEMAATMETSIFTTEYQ

Daclizumab
Kd: 0.3 nM
